Data reported in PMC9161741.

Target: T1, TFB2M T313E (human, UniProt Q9H5Q4 21-396, T313E)
T1 sequence: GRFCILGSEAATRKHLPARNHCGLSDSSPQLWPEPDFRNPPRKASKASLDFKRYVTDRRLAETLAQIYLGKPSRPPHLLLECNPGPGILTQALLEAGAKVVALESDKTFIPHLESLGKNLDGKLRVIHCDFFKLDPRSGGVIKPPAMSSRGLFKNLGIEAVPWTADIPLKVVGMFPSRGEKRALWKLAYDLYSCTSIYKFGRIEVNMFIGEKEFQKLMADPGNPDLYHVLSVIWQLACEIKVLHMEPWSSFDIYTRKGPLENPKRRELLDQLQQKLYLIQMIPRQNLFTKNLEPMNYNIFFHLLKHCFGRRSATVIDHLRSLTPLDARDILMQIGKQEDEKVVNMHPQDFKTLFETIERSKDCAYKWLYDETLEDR
Experiment: fluorescence anisotropy

B1: LSP (-17 to +19), fluorescein (dsDNA)
DNA 1: AAAAGTGCATACCGCCAAAAGATAAAATTTGAAATC
DNA 2: GATTTCAAATTTTATCTTTTGGCGGTATGCACTTTT
Which Kd does the source give for B1 here?
Its Kd is > 150 nM.
